Source: article PMC4787769

Target: mLANA DBD (Murine gammaherpesvirus 68 (MHV-68), UniProt O41974 124-314)
Experiment: SAXS; linear octamer model, no DNA bending
Settings: protein: recombinant; tags: GST-6xHis tag (pET49b) removed by 3C protease; chain copies: 2

B1: mLBS1-2 (dsDNA)
DNA 1: GCCATGCGCCCGCGCCTGGGGCGCCACGCGGCGCGCCCTGGAGACCCGGG
DNA 2: CCCGGGTCTCCAGGGCGCGCCGCGTGGCGCCCCAGGCGCGGGCGCATGGC
Q: Does B1 bind?
A: binds
